B1: CDAN1-interacting nuclease 1 (CDIN1), full length, bacterial (natural protein, human, UniProt Q9Y2V0 1-281, looked up)
chain: MILTKAQYDEIAQCLVSVPPTRQSLRKLKQRFPSQSQATLLSIFSQEYQKHIKRTHAKHHTSEAIESYYQRYLNGVVKNGAAPVLLDLANEVDYAPSLMARLILERFLQEHEETPPSKSIINSMLRDPSQIPDGVLANQVYQCIVNDCCYGPLVDCIKHAIGHEHEVLLRDLLLEKNLSFLDEDQLRAKGYDKTPDFILQVPVAVEGHIIHWIESKASFGDECSHHAYLHDQFWSYWNRFGPGLVIYWYGFIQELDCNRERGILLKACFPTNIVTLCHSIA
notes: CDIN1 (C15orf41), human, full length, 281 amino acids; Eluted from the Im7 column by cleavage with His-tagged Ulp1; plasmid pl21 (TriAltus); The anticipated homodimer mass is printed as 67 kDa; Alone in solution it is mainly a homodimer; also called C15orf41
B2: Codanin1 C-terminus (amino acids 1005-1227), labeled with Alexa Fluor 488 (domain or fragment, human, UniProt Q8IWY9 1005-1227, looked up)
chain: AARGERRGCSRACEHHAPLPSHLISEIKDVLSLAVGPRDPDEGVSPEHLEQLLGQLGQTLRCRQFLCPPAEQHLAKCSVELASLLVADQIPILGPPAQYRLERGQARRLLHMLLSLWKEDFQGPVPLQLLLSPRNVGLLADTRPREWDLLLFLLRELVEKGLMGRMEIEACLGSLHQAQWPGDFAEELATLSNLFLAEPHLPEPQLRACELVQPNRGTVLAQS
modifications: Alexa Fluor 488 covalently attached (carboxylic acid, 2,3,5,6-tetrafluorophenyl ester); site not stated; degree of labeling over 90%
notes: Codanin-1 (CDAN1), human, amino acids 1005-1227, codon-optimized for bacterial expression; Same protein as m2, with the dye; also called fluorescently labeled Codanin1_(Cterm); Codanin1_(Cterm) Alexa Fluor 488
B3: Codanin1 C-terminus (amino acids 1005-1227), bacterial (domain or fragment, human, UniProt Q8IWY9 1005-1227, looked up)
chain: AARGERRGCSRACEHHAPLPSHLISEIKDVLSLAVGPRDPDEGVSPEHLEQLLGQLGQTLRCRQFLCPPAEQHLAKCSVELASLLVADQIPILGPPAQYRLERGQARRLLHMLLSLWKEDFQGPVPLQLLLSPRNVGLLADTRPREWDLLLFLLRELVEKGLMGRMEIEACLGSLHQAQWPGDFAEELATLSNLFLAEPHLPEPQLRACELVQPNRGTVLAQS
notes: Codanin-1 (CDAN1), human, amino acids 1005-1227, codon-optimized for bacterial expression; Eluted from the Im7 column by cleavage with His-tagged Ulp1; plasmid pl21 (TriAltus); Anticipated mass is printed as 25 kDa; also called C-terminal part of Codanin1

Experiments:
[1] = target: the molecule itself; test: SEC-MALS; CDIN1 (2 mg/mL), Codanin1_(Cterm) (2 mg/mL) or the 1:1 complex; Zenix SEC 300 column; 20 mM Tris/HCl, 150 mM NaCl, pH 8.0
[2] = target: B3; test: AUC; sedimentation velocity, 20 °C, 50 000 rpm; 24 uM CDIN1, 24 uM Codanin1_(Cterm), or 1:1 complex at 12 uM each; 20 mM Tris/HCl, 150 mM NaCl, pH 8.0; details: both partners purified
[3] = target: B2; test: native gel or EMSA; 1.25 uM Alexa Fluor 488-labeled Codanin1_(Cterm) with 0-20 uM CDIN1 (twofold dilutions); 20 mM Tris/HCl, 150 mM NaCl, 5% glycerol, pH 8.0; 15 min at room temperature; native 10% PAGE, 0.5x TBE, 4 °C; details: both partners purified
[4] = target: B1; test: MST; 75 nM Alexa Fluor 488-labeled Codanin1_(Cterm) with 0-5 uM CDIN1; 20 mM Tris/HCl, 150 mM NaCl, 5% glycerol, pH 8.0; 25 °C; Hill equation fit; apparent KD; details: both partners purified
[5] = target: B1; test: ITC; Codanin1_(Cterm) (110 uM) titrated into CDIN1 (11 uM) in the cell; 15 °C; 20 mM Tris/HCl, 150 mM NaCl, 5% glycerol, pH 8.0; one-site binding model; details: both partners purified

B1
stoichiometry N [1]: 2
stoichiometry N [2]: 1 CDIN1:Codanin1_(Cterm)
stoichiometry N [3]: 1 CDIN1:Codanin1_(Cterm)

B2
Kd [4]: 0.053 ± 0.008 µM

B3
Kd [5]: 0.02 ± 0.004 µM

From publication PMC13370696, “Anemia‐associated mutations disrupt the CDIN1‐Codanin1 complex in inherited congenital dyserythropoietic anemia I (CDA‐I) disease” (The Febs Journal, 2026)
